Blank lines part the entries; values can stand above or below the substance they belong to.
Key:
[1] = biological target: VAMP2 (mouse) (UniProt P63044)
[2] = biological target: Syntaxin1 (rat) (UniProt P32851)
[3] = biological target: Munc13-1 C1-C2B-MUN-C2C domain (rat) (UniProt Q62768)

Sequence of UniProt P32851 (P32851 whole entry, the tested form may be a part): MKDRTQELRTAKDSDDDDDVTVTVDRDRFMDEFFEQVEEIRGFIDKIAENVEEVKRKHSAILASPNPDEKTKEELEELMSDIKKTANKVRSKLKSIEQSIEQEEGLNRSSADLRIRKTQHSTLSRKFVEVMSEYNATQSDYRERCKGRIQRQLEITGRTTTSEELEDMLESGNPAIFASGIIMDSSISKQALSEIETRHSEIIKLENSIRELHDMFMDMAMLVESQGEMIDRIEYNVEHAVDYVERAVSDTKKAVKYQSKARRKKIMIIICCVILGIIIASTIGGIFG
Sequence of UniProt P63044 (P63044 whole entry): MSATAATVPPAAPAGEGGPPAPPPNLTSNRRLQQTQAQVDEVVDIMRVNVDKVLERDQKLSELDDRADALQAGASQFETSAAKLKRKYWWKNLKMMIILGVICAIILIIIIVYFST

Ca^2+ (100 μM)-evoked fusion of the immobile, clamped vesicles, with 500 nM DHG [1]: 20%
Substance: Munc13-1 C1-C2B-MUN-C2C domain D1358K (from UniProt Q62768 529-1407; Q62768 1453-1735) (domain or fragment)

Substance: Munc13-1 C1-C2B-MUN-C2C domain N1128A/F1131A (from UniProt Q62768 529-1407; Q62768 1453-1735) (domain or fragment)
Ca^2+ (100 μM)-evoked fusion of the immobile, clamped vesicles, with 500 nM DHG [2]: 20%

Ca^2+ (100 μM)-evoked fusion of the immobile, clamped vesicles, with 500 nM DHG [3]: 20%
Substance: SNAP25 linker mutant with residues 113-138 replaced by a GGGGS repeat sequence (from UniProt P60879 1-112; P60879 139-206) (natural protein)
